Reference: article PMC3624071 (Biochemistry, 2013)

Key:
[1] = biological target: T1, EutB subunit of ethanolamine ammonia-lyase (EAL) from the EALH6 construct (S. typhimurium, UniProt P19264 1-453); assay: pull-down
T1 sequence: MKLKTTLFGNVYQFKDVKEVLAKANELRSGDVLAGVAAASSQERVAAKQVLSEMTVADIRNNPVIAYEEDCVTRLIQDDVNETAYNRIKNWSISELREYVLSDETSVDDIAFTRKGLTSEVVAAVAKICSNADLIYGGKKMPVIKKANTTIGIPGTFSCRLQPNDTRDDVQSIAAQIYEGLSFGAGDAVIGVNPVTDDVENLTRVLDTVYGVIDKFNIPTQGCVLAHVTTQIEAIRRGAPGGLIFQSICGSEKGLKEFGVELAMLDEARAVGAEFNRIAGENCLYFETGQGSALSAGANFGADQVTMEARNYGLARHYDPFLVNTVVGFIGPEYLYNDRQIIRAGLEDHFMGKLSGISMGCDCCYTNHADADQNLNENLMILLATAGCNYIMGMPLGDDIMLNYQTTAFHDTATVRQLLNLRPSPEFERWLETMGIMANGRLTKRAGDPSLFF

[2] = biological target: T1, EutB subunit of ethanolamine …; assay: pull-down; remark: listed apart in the source

B1: EutC subunit of ethanolamine ammonia-lyase (EAL) from the EALH6 construct (natural protein)
chain: MDQKQIEEIVRSVMASMGQDVPQPAAPSTQEGAKPQCAAPTVTESCALDLGSAEAKAWIGVENPHRADVLTELRRSTAARVCTGRAGPRPRTQALLRFLADHSRSKDTVLKEVPEEWVKAQGLLEVRSEISDKNLYLTRPDMGRRLSPEAIDALKSQCVMNPDVQVVVSDGLSTDAITANYEEILPPLLAGLKQAGLNVGTPFFVRYGRVKIEDQIGEILGAKVVILLVGERPGLGQSESLSCYAVYSPRVATTVEADRTCISNIHQGGTPPVEAAAVIVDLAKRMLEQKASGINMTR
With B1 the “subunit molar ratio after elution with 250 mM imidazole” value [1] was 0.32 mol EutC per mol EutB and the “stoichiometry N” value [2] was 1.01 mol EutC per mol EutB.
